Data on two molecules can be found in publication PMC9426472, “Blockade of the Adenylate Cyclase Toxin Synergizes with Opsonizing Antibodies to Protect Mice against Bordetella pertussis” (mBio, 2022).

Test [1] deals with integrin αMβ2 (Homo sapiens) (UniProt P11215). Briefly: SPR. The following applies: cited from earlier work.
The target of test [2] is T1, soluble, purified mouse αMβ2 integrin (ectodomain heterodimer) (mouse, UniProt P05555 17-1105; P11835 24-701).
T1 construct: also called CR3; MAC-1
T1 sequence (P05555 other isoform, or with tags, fused parts or gaps, chain 1 of 2): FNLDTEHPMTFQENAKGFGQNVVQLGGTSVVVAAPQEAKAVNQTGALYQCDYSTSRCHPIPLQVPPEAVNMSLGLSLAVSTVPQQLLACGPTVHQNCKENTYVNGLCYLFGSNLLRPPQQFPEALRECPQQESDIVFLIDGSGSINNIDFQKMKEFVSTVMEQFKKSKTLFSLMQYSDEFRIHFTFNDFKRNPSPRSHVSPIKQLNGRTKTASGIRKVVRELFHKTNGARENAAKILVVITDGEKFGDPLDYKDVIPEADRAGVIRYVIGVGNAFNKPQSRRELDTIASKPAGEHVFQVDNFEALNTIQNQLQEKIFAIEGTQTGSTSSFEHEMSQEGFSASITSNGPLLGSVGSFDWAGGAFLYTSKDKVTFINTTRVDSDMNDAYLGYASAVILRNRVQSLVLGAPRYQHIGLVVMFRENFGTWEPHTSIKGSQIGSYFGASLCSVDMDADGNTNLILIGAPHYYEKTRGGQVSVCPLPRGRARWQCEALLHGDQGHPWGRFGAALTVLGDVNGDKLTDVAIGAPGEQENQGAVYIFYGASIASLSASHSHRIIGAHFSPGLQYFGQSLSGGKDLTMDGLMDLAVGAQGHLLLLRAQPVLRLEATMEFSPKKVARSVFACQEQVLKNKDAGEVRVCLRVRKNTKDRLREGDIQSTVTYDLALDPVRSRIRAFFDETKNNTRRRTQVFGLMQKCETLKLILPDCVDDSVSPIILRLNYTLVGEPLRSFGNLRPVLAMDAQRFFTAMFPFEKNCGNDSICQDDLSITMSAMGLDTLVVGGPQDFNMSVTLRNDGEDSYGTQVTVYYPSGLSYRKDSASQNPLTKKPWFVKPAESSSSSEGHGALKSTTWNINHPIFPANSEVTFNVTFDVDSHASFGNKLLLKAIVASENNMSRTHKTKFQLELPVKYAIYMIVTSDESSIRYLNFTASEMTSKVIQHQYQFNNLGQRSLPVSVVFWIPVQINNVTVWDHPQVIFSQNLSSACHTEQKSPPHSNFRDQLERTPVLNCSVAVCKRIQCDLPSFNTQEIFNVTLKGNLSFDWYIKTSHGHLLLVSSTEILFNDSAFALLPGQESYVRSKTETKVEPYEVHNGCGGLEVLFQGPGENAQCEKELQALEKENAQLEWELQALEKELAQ
T1 sequence (P11835 other isoform, or with tags, fused parts or gaps, chain 2 of 2): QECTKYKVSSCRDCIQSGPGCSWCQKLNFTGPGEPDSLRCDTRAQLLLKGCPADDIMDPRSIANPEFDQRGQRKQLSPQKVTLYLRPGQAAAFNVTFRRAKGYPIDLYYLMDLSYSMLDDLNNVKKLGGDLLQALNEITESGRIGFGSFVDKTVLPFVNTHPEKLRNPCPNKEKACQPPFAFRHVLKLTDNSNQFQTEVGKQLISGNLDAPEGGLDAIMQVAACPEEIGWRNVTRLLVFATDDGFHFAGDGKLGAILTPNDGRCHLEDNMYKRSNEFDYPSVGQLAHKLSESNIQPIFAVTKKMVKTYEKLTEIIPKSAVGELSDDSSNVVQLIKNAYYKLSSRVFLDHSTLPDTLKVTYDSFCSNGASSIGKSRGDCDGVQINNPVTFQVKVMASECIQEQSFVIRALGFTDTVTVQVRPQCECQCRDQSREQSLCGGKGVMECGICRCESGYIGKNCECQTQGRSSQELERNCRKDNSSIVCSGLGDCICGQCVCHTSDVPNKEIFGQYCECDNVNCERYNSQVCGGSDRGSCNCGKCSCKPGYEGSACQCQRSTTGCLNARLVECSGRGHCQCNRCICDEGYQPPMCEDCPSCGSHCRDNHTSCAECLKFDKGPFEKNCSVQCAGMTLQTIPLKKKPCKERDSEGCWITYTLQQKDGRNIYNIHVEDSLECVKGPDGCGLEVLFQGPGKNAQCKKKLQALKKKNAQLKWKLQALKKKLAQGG
The experiment in a line: SPR; Biacore X100; M1F5 Fab amine-coupled to both flow cells of a CM5 chip (~2,500 RU); ~10 RU RTX (10 nM) captured on flow cell 2 in each cycle; mouse αMβ2 at 6.13 to 200 nM flowed for 180 s, dissociation 600 s; 10 mM HEPES pH 7.4, 150 mM NaCl, 1 mM CaCl2, 1 mM MgCl2, 0.05% Tween 20; global 1:1 binding model. The following applies: both partners purified. A general note: Surface plasmon resonance follows binding to a sensor surface in real time, without labels.

Consider “adenylate cyclase toxin RTX751 (from UniProt P0DKX7)”, for which the Kd (commonly the free concentration of one partner at which half of the binding sites on the other are occupied at equilibrium, for simple one-to-one binding) in test [1] is 57 nM.

B1: RTX751 (RTX domain of the Bordetella pertussis adenylate cyclase toxin, residues 751 to 1706) (domain or fragment)
chain: ANSDGLRKMLADLQAGWNASSVIGVQTTEISKSALELAAITGNADNLKSVDVFVDRFVQGERVAGQPVVLDVAAGGIDIASRKGERPALTFITPLAAPGEEQRRRTKTGKSEFTTFVEIVGKQDRWRIRDGAADTTIDLAKVVSQLVDANGVLKHSIKLDVIGGDGDDVVLANASRIHYDGGAGTNTVSYAALGRQDSITVSADGERFNVRKQLNNANVYREGVATQTTAYGKRTENVQYRHVELARVGQLVEVDTLEHVQHIIGGAGNDSITGNAHDNFLAGGSGDDRLDGGAGNDTLVGGEGQNTVIGGAGDDVFLQDLGVWSNQLDGGAGVDTVKYNVHQPSEERLERMGDTGIHADLQKGTVEKWPALNLFSVDHVKNIENLHGSRLNDRIAGDDQDNELWGHDGNDTIRGRGGDDILRGGLGLDTLYGEDGNDIFLQDDETVSDDIDGGAGLDTVDYSAMIHPGRIVAPHEYGFGIEADLSREWVRKASALGVDYYDNVRNVENVIGTSMKDVLIGDAQANTLMGQGGDDTVRGGDGDDLLFGGDGNDMLYGDAGNDTLYGGLGDDTLEGGAGNDWFGQTQAREHDVLRGGDGVDTVDYSQTGAHAGIAAGRIGLGILADLGAGRVDKLGEAGSSAYDTVSGIENVVGTELADRITGDAQANVLRGAGGADVLAGGEGDDVLLGGDGDDQLSGDAGRDRLYGEAGDDWFFQDAANAGNLLDGGDGRDTVDFSGPGRGLDAGAKGVFLSLGKGFASLMDEPETSNVLRNIENAVGSARDDVLIGDAGANVLNGLAGNDVLSGGAGDDVLLGDEGSDLLSGDAGNDDLFGGQGDDTYLFGVGYGHDTIYESGGGHDTIRINAGADQLWFARQGNDLEIRILGTDDALTVHDWYRDADHRVEIIHAANQAVDQAGIEKLVEAMAQYPDPGAAAAAPPAARVPDTLMQSLAVNWR
notes: Cloned into the NheI and BamHI sites of pET28a+; The vector may add N-terminal residues (His tag, thrombin site) before the Strep tag; also called recombinant RTX751
As to B1, in test [2], the Kd is 52 nM; the koff – broadly, the first-order rate constant of dissociation – is 0.0028 s⁻¹; the kon (usually the rate constant with which the complex forms) was determined as 55000 M⁻¹ s⁻¹.
